# Literature values as cited in publication PMC6070697.
# Columns and labels:
# Test in all cases: kinetics
# Settings in all cases: enzyme turning over with acetyl-CoA and an amine substrate
# [1] = molecular target: Glu34 (UniProt position 34, HYYPEEPLTAG)
# [2] = molecular target: Glu47 (UniProt position 82, FFFKDEPLNTF)
# [3] = test system: Glu26
substance,measurement,setting,value
Agmatine N-acetyltransferase (Dm-AgmNAT; formerly Dm-AANATL8) (Drosophila melanogaster),pKa,[1],approximately pH 7.5
Arylalkylamine N-acetyltransferase A (Dm-AANATA; dopamine N-acetyltransferase) (Drosophila melanogaster),pKa,[2],approximately pH 7.5
Arylalkylamine N-acetyltransferase like 7 (Dm-AANATL7) (Drosophila melanogaster),pKa,[3],approximately pH 7.5
